Legend:
[1] = target: Francisella α1NTD (residues 1-244), bacterial two-hybrid fusion (Francisella tularensis subsp. novicida strain U112) (UniProt A0Q4K8); assay: two-hybrid
[2] = target: Francisella α2NTD (residues 1-242), bacterial two-hybrid fusion (Francisella tularensis subsp. novicida strain U112); assay: two-hybrid

Substance | β-galactosidase activity (Miller units) [1] [Miller units] | β-galactosidase activity (Miller units) [2] [Miller units]
Francisella α2NTD (residues 1-242), bacterial two-hybrid fusion (domain or fragment) | 1410 | –
Francisella α1NTD (residues 1-244), bacterial two-hybrid fusion (from UniProt A0Q4K8 1-244) (domain or fragment) | – | 662
